{"source": "patent US20040022780A1", "about": "“Serine protease and topical retinoid compositions useful for treatment of acne vulgarise and production of anti-aging effects” (priority 1997, published 2004)", "key": {"[1]": {"tested_on": "Rhino mouse skin", "experiment": "Transepidermal water loss (TEWL), evaporimeter on dorsal skin", "assay_type": "in vivo", "details": "for TEWL: topical once daily for five days", "from_the_text": "Rhino mice of Example 1 were topically treated with the trypsin compositions (0.001% (w/v)-1% (w/v)) of Example 2 once daily for five days. Animals were sacrificed at day 8 and image analysis was used to quantify the reduction in utriculi size. For image analysis, whole mount epidermis was processed and microscopic measurements were taken according to the methods described in Mezick as well as Bernerd et al., “The Rhino Mouse Model: The Effects of Topically Applied All-Trans Retinoic Acid and CD271 on the Fine Structure of the Epidermis and Urticuli Wall of Pseudocomedones,” 283(2) Arch. Dermatol. Res. 100-107 (1991) and Bouclier et al., “Quantification of Epidermal Histological Changes Induced by Topical Retinoids and CD271 in the Rhino Mouse Model Using a Standardizing Image Analysis Technique,” 4(2) Skin Pharmacol. 65-73 (1991) which are each incorporated herein by reference in their entirety. Empire Imagins Database version 1.1 was used on a Gateway 2000 P5-100 computer for capturing images. Image Pro Plus version 1.3 was used for measurements and Microsoft Excel version 5.0 for data processing. The mean utriculus diameter (μ) and the mean sebaceous gland size (μ^2) were calculated for each treatment group (3 Rhino mice), using 5 random fields, two measurements per field, per animal. Percent reduction in utriculi diameter was calculated in accordance with the methods described in Finley, D. J., “Parallel Line Assays, Statistical Method in Biological Assay,” Charles Griffen & Company Ltd. 69-104 (1978) which is incorporated herein by reference in its entirety.\nTo further characterize the effect of trypsin on the Rhino mouse skin, we measured the transepidermal water loss (“TEWL”) using an “Evaporimeter EPI” evaporimeter available from Servomed AB by first normalizing the evaporimeter with the ambient humidity and then placing the probe on the dorsal skin of the test subject at which point a reading of TEWL was taken."}, "[2]": {"tested_on": "Rhino mouse skin", "experiment": "Cutometer analysis of skin elasticity, Rhino mouse", "assay_type": "in vivo", "procedure": "(§1) To quantitate this effect, a cutometer analysis was performed. We used a cutometer available from Acaderm (Menlo Park, Calif.), and employed the methods described in Couturaud et al., “Skin Biomechanical Properties: In Vivo Evaluation of Influence of Age and Body Site by a Non-Invasive Method,” 1 Skin Res. and Technol. 68-73 (1995) and Elsner et al., “Mechanical Properties of Human Forearm and Vulvar Skin,” 122 Br. J. Dermatol. 607-614 (1990) which are both incorporated herein by reference in their entirety. Suction was applied through a 2 mm aperture and the corresponding skin displacement and recovery after release of the negative pressure were measured. In human studies, an improvement in the ratios of deformation parameters Ua/Uf (skin fatigue, or total recovery from the load), Ur/Uf (biological elasticity, or elastic recovery after loading), and Ur/Ue (firmness, or improvement in the deformation resistance of the skin) indicates better tonicity and elasticity of the skin. The deformation parameters Ue, Uf, Ua, and Ur are dependent, in part, on skin thickness. Consequently, ratios were used for evaluation as described in Barel et al., “Suction Method for Measurement of Skin Mechanical Properties: The Cutometer,” Handbook of Non-Invasive Methods and the Skin 335-340 (1995) which is incorporated herein by reference in its entirety."}, "[3]": {"tested_on": "C57B1/6 skin", "experiment": "Cutometer analysis of skin elasticity, C57B1/6 mouse", "assay_type": "in vivo, C57B1/6 mice", "details": "Day 16, trypsin treated", "procedure": "as §1\nFIGS. 3(c) and (d), the untreated and trypsin treated skins, respectively, show the results of elastin staining."}, "[4]": {"tested_on": "Rhino mouse skin", "experiment": "H&E histology of trypsin treated Rhino mouse skin", "assay_type": "in vivo", "details": "0.1% (w/v) trypsin in GDL liposomes daily for five days"}, "[5]": {"tested_on": "Rhino mouse skin", "experiment": "Histology after suboptimal trypsin, all-trans retinoic acid or both", "assay_type": "in vivo", "details": "suboptimal dose alone: 0.005% (w/v) trypsin or 0.0005% (w/v) all-trans retinoic acid", "procedure": "A first set of Rhino mice of Example 1 were treated with suboptimal doses of the trypsin composition of Example 2. […] A second set of Rhino mice of Example 1 were treated with suboptimal concentrations of the all-trans retinoic acid composition of Example 2. A third set of Rhino mice of Example 1 were treated with both suboptimal doses of the trypsin composition of Example 2 and the all-trans retinoic acid composition of Example 2. In this third set of Rhino mice, the trypsin and all-trans retinoic acid treatments were each administered daily, but at different times (i.e. trypsin in the morning and all-trans retinoic acid in the afternoon). Mice were sacrificed and their skins were examined histologically with the procedure set forth in Example 3."}, "[6]": {"tested_on": "elastin fibers in Rhino mouse skin", "experiment": "Elastin staining of paraffin skin sections, Rhino mouse", "assay_type": "in vivo", "details": "trypsin treated Rhino mice vs untreated", "from_the_text": "To further study this elasticity effect, skin sections of Rhino mice from Example 1 treated with the trypsin composition of Example 2 were stained for elastin on paraffin sections in accordance with the methods set forth in Kligman, L. H., “Luna's Technique, A Beautiful Stain for Elastin,” 3(2) The Amer. J. of Dermatopathol. 199-200 (1981) which is incorporated herein by reference in its entirety."}, "[7]": {"tested_on": "follicular epithelium of Rhino mouse skin", "experiment": "TUNEL stain of skin for apoptotic bodies", "assay_type": "in vivo", "details": "0.1% (w/v) trypsin daily for five days, sacrificed at day eight", "procedure": "Rhino mice of Example 1 were treated daily with a 0.1% (w/v) trypsin composition of Example 2 for five days and sacrificed at day eight.\n1 cm by 2 cm samples of the skins of untreated, vehicle treated, and trypsin treated mice were obtained via the procedure set forth in Example 3 then analyzed using a TdT-mediated dUTP-biotin nick end labeling (“TUNEL”) stain procedure as disclosed in Gavrieli et al., “Identification of Programmed Cell Death in situ Via Specific Labeling of Nuclear DNA Fragmentation”, 119 Jl. Cell Biology 493-501 (1992) (“Gavrieli”). During this procedure, the prepared skin sections were stained using an “ApopTag™ Plus In Situ Apoptosis Detection Kit” available from Oncor, Inc. as specified in the “ApopTag™ Plus In Situ Apoptosis Detection Kit” protocol by Oncor, Inc. (Feb. 1995), which is based upon the labeling of fragmented DNA ends as described in Gavrieli. FIGS. 5(a-d) show a histological analysis wherein the stain has a peroxidase end point (brown) and a methyl green counter-stain. The resulting representations of this are provided in FIGS. 5(a&b) which are vehicle treated and FIGS. 5(c&d) which are trypsin treated."}}, "data": [{"molecule": "trypsin (protein, UniProt P00760 24-246, looked up, lyophilyzed trypsin from Sigma-Aldrich, a serine protease, in Hepes buffer mixed with GDL liposomes) Serine protease 1: IVGGYTCGANTVPYQVSLNSGYHFCGGSLINSQWVVSAAHCYKSGIQVRLGEDNINVVEGNEQFISASKSIVHPSYNSNTLNNDIMLIKLKSAASLNSRVASISLPTSCASAGTQCLISGWGNTKSSGTSYPDVLKCLKAPILSDSSCKSAYPGQITSNMFCAGYLEGGKDSCQGDSGGPVVCSGKLQGIVSWGSGCAQKNKPGVYTKVCNYVSWIKQTIASN", "values": [{"measurement": "TEWL", "setting": "[1]; Trypsin 0.001% (w/v)", "value": "29.53 ± 3.68", "unit": "g/m^2h"}, {"measurement": "TEWL", "setting": "[1]; Trypsin 0.005% (w/v)", "value": "26.40 ± 1.77", "unit": "g/m^2h"}, {"measurement": "TEWL", "setting": "[1]; Trypsin 0.01% (w/v)", "value": "28.53 ± 2.18", "unit": "g/m^2h"}, {"measurement": "TEWL", "setting": "[1]; Trypsin 0.05% (w/v)", "value": "36.57 ± 2.07", "unit": "g/m^2h"}, {"measurement": "TEWL", "setting": "[1]; Trypsin 0.1% (w/v)", "value": "42.80 ± 4.33", "unit": "g/m^2h"}, {"measurement": "TEWL", "setting": "[1]; Trypsin 0.5% (w/v)", "value": "36.23 ± 1.24", "unit": "g/m^2h"}, {"measurement": "TEWL", "setting": "[1]; Trypsin 1.0% (w/v)", "value": "42.00 ± 1.14", "unit": "g/m^2h"}, {"measurement": "trypsin concentration at which TEWL increase reached a plateau", "setting": "[1]; once daily for five days", "value": "~0.05 % (w/v)"}, {"measurement": "TEWL compared with retinoid treatment given alone", "setting": "[1]; trypsin treated mice", "value": "lower than that for retinoid treatment given alone"}, {"measurement": "Ua/Uf (skin fatigue, total recovery from the load)", "setting": "[2]; Day 7, trypsin treated", "value": "0.593 ± 0.09"}, {"measurement": "Ur/Ue (firmness)", "setting": "[2]; Day 7, trypsin treated", "value": "0.557 ± 0.21"}, {"measurement": "Ur/Uf (biological elasticity)", "setting": "[2]; Day 7, trypsin treated", "value": "0.359 ± 0.22"}, {"measurement": "Ua/Uf (skin fatigue, total recovery from the load)", "setting": "[2]; Day 12, trypsin treated", "value": "0.663 ± 0.10"}, {"measurement": "Ur/Ue (firmness)", "setting": "[2]; Day 12, trypsin treated", "value": "0.666 ± 0.24"}, {"measurement": "Ur/Uf (biological elasticity)", "setting": "[2]; Day 12, trypsin treated", "value": "0.548 ± 0.11"}, {"measurement": "Ua/Uf (skin fatigue, total recovery from the load)", "setting": "[2]; Day 16, trypsin treated", "value": "0.675 ± 0.03"}, {"measurement": "Ur/Ue (firmness)", "setting": "[2]; Day 16, trypsin treated", "value": "0.733 ± 0.18"}, {"measurement": "Ur/Uf (biological elasticity)", "setting": "[2]; Day 16, trypsin treated", "value": "0.404 ± 0.08"}, {"measurement": "Ua/Uf (skin fatigue, total recovery from the load)", "setting": "[3]", "value": "0.675 ± 0.18"}, {"measurement": "Ur/Ue (firmness)", "setting": "[3]", "value": "0.7335 ± 0.02"}, {"measurement": "Ur/Uf (biological elasticity)", "setting": "[3]", "value": "0.404 ± 0.1"}, {"measurement": "inflammatory cells in skin histology", "setting": "[4]", "value": "no inflammatory cells"}, {"measurement": "epidermis histology (H&E)", "setting": "[4]; vs untreated", "value": "hyperplastic with an increase in the number of cell layers"}, {"measurement": "skin histology of treatment given alone vs untreated skin", "setting": "[5]", "value": "marked inprovement"}, {"measurement": "elastin fibers around the utriculi and the sebaceous glands", "setting": "[6]", "value": "increased in thickness and density"}, {"measurement": "apoptotic bodies within the follicular epithelium (TUNEL)", "setting": "[7]", "value": "elimination of all the apoptotic bodies"}]}]}
